Measurements from publication PMC4797267, “The CSB chromatin remodeler and CTCF architectural protein cooperate in response to oxidative stress”.

Biological target: T1, MBP-CTCF (zinc fingers 1-11) (UniProt P49711 269-579)
T1 sequence: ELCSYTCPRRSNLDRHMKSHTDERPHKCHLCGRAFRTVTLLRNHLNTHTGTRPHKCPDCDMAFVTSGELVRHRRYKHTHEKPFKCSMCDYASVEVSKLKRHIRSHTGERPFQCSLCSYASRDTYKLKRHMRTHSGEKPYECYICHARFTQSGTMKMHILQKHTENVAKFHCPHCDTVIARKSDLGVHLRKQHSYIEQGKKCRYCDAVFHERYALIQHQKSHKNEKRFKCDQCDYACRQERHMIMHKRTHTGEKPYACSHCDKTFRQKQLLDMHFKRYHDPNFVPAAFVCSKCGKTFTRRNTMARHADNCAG
Assay: EMSA; 100 uM ZnSO4, 6 mM Mg2+; no CSB; 30 mM HEPES pH 7.9, 60 mM NaCl, 6% glycerol, 6 mM MgCl2, 100 uM ZnSO4, 0.02% NP40, 30 C 10 min; 1 nM DNA; 5% native PAGE, 0.5x TBE
Details: protein: recombinant; tags: MBP; label: 32P (body label, PCR with 32P-dATP); blunt

B1: 200 bp DNA fragment with CTCF-binding site (Fig. S4B) (dsDNA)
DNA 1: CACACCGAGTTCATCCCTTATGTGATGGACCCTCCACGAGGGGGCCCTGGAGAATCCCGGTGCCGAGGCTGCAGAATTGGTCGTAGACAGCTCTAGCACCGCTTAAACGCACGTACGCGCTGTCCCCCGCGTTTTAACCGCCAAGGGGATTACTCCCTAGTCTCCAGGCACGTGTCAGATATATACATCCTGT
DNA 2: ACAGGATGTATATATCTGACACGTGCCTGGAGACTAGGGAGTAATCCCCTTGGCGGTTAAAACGCGGGGGACAGCGCGTACGTGCGTTTAAGCGGTGCTAGAGCTGTCTACGACCAATTCTGCAGCCTCGGCACCGGGATTCTCCAGGGCCCCCTCGTGGAGGGTCCATCACATAAGGGATGAACTCGGTGTG
binding result: binds
